Reference: the DeepSol protein solubility set

Assay: soluble on expression in E. coli; label from the status in PepcDB or PDB records

Row | Sequence | soluble on expression in E. coli
1 | MEPEDTQLKEDIKTTVNYIKQHGVEFENKLLEDERFSFIKKDDPLHEYYTKLMNEPTDTVSGEDNDRKSEREIARPPDFLFSQYDTGISRRDMEVIKLTARYYAKDKSIVEQMISKDGEARLNFMNSSHPLHKTFTDFVAQYKRVYSFTGQEIKKSKRTILDNCFERTQYWEFEKDKDREHDKLVELCKIQFAAIPWDKFTQVAKFSIPEDTEIFEGSLDLEQMRLRRVQTGIKLFDSIKPTNEEEKIVSDQGKQKGGDSKGKKRKIRAVGETRLKKSKK | soluble
2 | MSLANLYLMRSRSDELNTIISTNLLKNYSKIYKNIAIYCPVIYIHRVPVLQGWLEEFNINQTVKSAYGFTFREAMEEFSKDPHNFFNVILEEYEELKRKYDFVLVNSFCEFGILDGFDLSIKLAKNLNTPIAAIINDEDKLIAQKYFDHALDGRNYVLINENFNFEEVQKLKEYDFITPHRFKYELIKQSIKNKKTVVLPESNDERILKAAEILLKSKVVDLILLGDEEKIKQDATRLSLDLSAMQIMNPLNSEYNQKFTSILYEARKSKGMSLEEAKMLVQDKTYFGTLLIHTGKADAMVSGASTTTAETIRPALQLIKTKEGISSVSGIFFMGLEDQVLAFADCAVNPSPTAEQLATSAYVSAMTAKSFGLEPRIALLSYSSGDSGKGESVDLVKEALKIAKEKYPELNIDGPMQFDCAYDPKTAAKKMPNSKIAGHANVYIFPDLNAANICYKAVQRTANALAIGPILQGLKKPVNDLSRGCLVDDIVDTVILSAIQAQEGHHHHHH | soluble
3 | MGSDKIHHHHHHMGIYFNPGNGSFTKDKNSQLYIDKTGLIEYLNRVICTNANCISVSHARRFGKSHAAGMIDAYYSRGCDSSELFADSEIAAKDSYSAHLNKYNVIHIDVSSFWDAYKDNVIEKIQEYIYDELKQVYGDQIDYTKMISAVLMSVYNISDIPFVIIIDEWDCVIRNGGNKTLVHSYLQFLHLLFKSEESKTFLALAYITGILPIKKIKDESALNNFREFTMLKSKQLTRYFGFTEDEVKKLCITYDMDFESIKAWYNGYLIDGLHMYNPNSVVQAMLDHDYDFYWKNTSSFESINTFITMNYAGLKDDVLAMLSGDKIRVNVNTFQNDLTTVASKDDALTALIHLGYLAYDANRKMAYIPNYEVAAAYDLALQTGSWSEVANSISKCDELLDATLNEDADKVAELVEIAHETYTSVLKYNDENSLSCALTMAYFTANAYYNIVREFPAGKGFADLVFIPRANACGRPAIVIELKYNASADSAISQIKNRRYHGALSGYSNQILLVGINYSNTSDNKKHTCIIESINNLD | not soluble
4 | MGDHYGFSLTTFSPSGKLMQIEYALNAVKNGQPSVGLRAKDGVVLATENVGSVLTDDQPKVEQISKHIGCVYSGMGPDFRILVKKARKIAMEYEMMYGEEMPTIQLVTDIAAVMQEYTQSGGVRPFGASLLIAGWDKNPGRPLLFQCDPSGAYFAWKATALGKNDVNAKTFLEKRFSEALELDDGIHTALLTLRESFDVGMNENNVEVAVCNSTGFHRLTKQQVHDHLGTL | not soluble
5 | HMDPDELPLDEHCERLPYDASKWEFPRDRLNLGKPLGRGAFGQVIEADAFGIDKTATCRTVAVKMLKEGATHSEHRALMSELKILIHIGHHLNVVNLLGACTKPGGPLMVIVEFCKFGNLSTYLRSKRNEFVPYKTPEDLYKDFLTLEHLICYSFQVAKGMEFLASRKCIHRDLAARNILLSEKNVVKICDFGLARDIYKDPDYVRKGDARLPLKWMAPETIFDRVYTIQSDVWSFGVLLWEIFSLGASPYPGVKIDEEFCRRLKEGTRMRAPDYTTPEMYQTMLDCWHGEPSQRPTFSELVEHLGNLLQANAQQD | soluble
6 | IEETGTVIIAGIGRFGQIVNRLLVSNGVTTVVLDHQANQVDNMRQIGTRAYFGDATRPDMLHTAGIEHAAALVVAIDNQESSVELVKYVKHTYPKVKIIARAFDRGHGYLLRQAGADVIESETYHSALEMGGHAMKALGI | not soluble
7 | MSLRTSGSRLNSVRCASALTISGWKNNCVIEFDASGRIQSLREDSQSDVDLDLKGTVIAGIPNLHSHAHQKVITGLTEHRIAGQDDFWGWRELMYRANARLDPEQLQTIARYLYIDMLQKGYTSVAEFHYLHHQPDGTPYADLSEMSAQLLEAASEAGIAITLLPVLYCRGGFKDEPVQDSQHRFFNNPERYLALLESCHSLCANNPDRSLGFAAHSLRAVSPSAMSSTIEAAGPMLEGAPIHIHVAEQMREVNDCIEINGARPVAWLYDQCDVNDRWCLVHATHVDPQEQALLAQSGAIVGLCPTTEANLGDGIFPAAELMTNNGFLGVGSDSQVCTSPAEELRLLEYSQRFSLQRRTVLVPDEAGSNGRALTTAAIIGGNRARGEPLAGLQPGARGDLVEIGSDHVEFAGRSPDQVLDTWIFSGPDNPVQNVVAGGRHVVHDGVHPAMESASRAYREMVNALDLSEGHHHHHH | soluble
8 | MQGLQLPQIYFSAAERRPKFVMKTGLSATEKNEVIKAAYRQIFERDITRAYSLSISDLESKVKNGDISMKEFVRRLAKSPLYQKQFYQPFINSRVIELAFRHILGRGPSSREEVQKYFSIISNGGLPALVDALVDSAEYSDYFGEETVPYLRGLGQEALEHHHHHH | not soluble
9 | MGSDKIHHHHHHMKEWRRNILGRELVVQYGKVAKQSSGSALVRFGDTVVLATANISDKAVEGIDFVPLTVEFQERFYAAGKIPGGFIKREGKPSESAILSARLIDRPIRPLFPKKLRNEVQVIVTVLSVDPNVPPDVVGIFAASLALNVSKIPFEGIVAGIRVGYRDGQFIALPSEEDIEKGLMDITVAGTKDAVTMVEGEAKEVTEEDMVKALRFAHSVIKELVDFQEEILSEFNVEKIPVVEPTPPEGLVEAFKDLLNKEELERRILVKVKKEREVALKEYEEQLLNQIAEKLSVTDLEGIKPFVSELYEDAVKKTMRRLIVEKGIRADGRKPTEIRPISCEVGLFPRTHGSALFTRGETQSLGIVTLGAPMDVQIIDTLLEEGVKRFMLHYNFPPFCTGEVKPLRGPSRREIGHGHLAERALKNMLPPEEEFPYTIRVVSEILESNGSSSMATVCSGSLALMDAGVPIKKHVAGIAMGLILEEDAEIILTDIIGMEDHYGDMDFKVAGTRDGITAFQMDCKVSGVSDELLMKALMQAREARMYILDRMYETISAPRPHLSKYAPIIKVTKVDPEKVADVIGPGGRVIKKIIKDFDVKVEIDDETGLVKVVGSSEENVDKAIELIREIAKEIEVGEVLEGKVTRIEPYGLFIEVRPGKIGLLHQSKVGEDMRQFLKKVKVGDTIKVQVINIDDLGRLQFKRVTEGENTQHGKTHSKRN | not soluble
10 | MIIAGVDIGNSTTEVALAKVNGDEIRFLASGISNTTGIKGTPQNVEGVRHALEDAVRKANLTIKDIDLLRINEATPVISDIAMEAITETIITESTMIGHNPTTPGGVGLGIGITIPIFELEKCKHGEEVIVVIPKNVDYEDAAKIINNAFSKGVEVKGAIAQKDDGVLIATRLQRRIPIVDEVKQIEKVPIGMLACVEVAEPGYTIKTLSNPYGIASVFNLTAEETKNIVPVARALIGNRSAVVIRTPKGEVQERKIPAGTLIIKGNNRTFTVDIEEGAEAIMSAVESTWPLVDAEGTPGTNVGGLIARIKETMADVTGQDSSNIQIQDVLAVDTLVRQKVKGGIAEEFSSENAVALAAMVKSSKLPMEKVAQKIEQEIGIAVEIAGIEANMAIIGALTTPGTELPLAILDLGGGSTDAALMTKNGEVKSVHMAGAGEMVNMLIKTELGIEDKYLVEDIKKYPVCRVESLFSIRLEDGTVRFFKEPLDPRTFARVCLLREDGLLPLPPELNMEKVINVRRNAKRKVFVTNALRALSKVAPAGNIRLIDFVVMVGGSALDFEIPEMISDTLAGYGIVAGRGNIRNVEGPRNAVATGLVLSRCKRK | not soluble
11 | RKLHAEELLRLAMAHLRNQGKPVRIVDIAAGHGRYILESLRGVEPLPESILLRDYSDINVRDGSLLIEQKDLEDIARFVKGDAFDRNDLATLDPKPTLAVVSGLYELFSSNQMVGDSLAGLAAAVEPGGYLVYTGQPWHPQLELIARALTSHREGQAWVMRRRSQSEMDQLVEAAGFRKITQRVDEWGIFTVSLAQRIQ | not soluble
12 | MNFIIEPGSLADIDELERLYDELNDHLSATINYPGWIKGIYPVRENAAAGVDDNSLFVARCDGRIAGSVILDHQPEKAYENIVWKIDADYSYIFVVRTFVVHPSFLQMGVGHALMDFSLELALKSEMKSIRLDVYEKNLPAISLYEKCGFEYIDTVDLGLGHYGLDWFKLYEKVILEHHHHHH | soluble
13 | MTAALHIGHLSKSFQNTPVLNDISLSLDPGEILFIIGASGCGKTTLLRCLAGFEQPDSGEISLSGKTIFSKNTNLPVRERRLGYLVQEGVLFPHLTVYRNIAYGLGNGKGRTAQERQRIEAMLELTGISELAGRYPHELSGGQQQRAALARALAPDPELILLDEPFSALDEQLRRQIREDMIAALRANGKSAVFVSHDREEALQYADRIAVMKQGRILQTASPHELYRQPADLDAALFIGEGIVFPAALNADGTADCRLGRLPVQSGAPAGTRGTLLIRPEQYSLHPHSAPAASIHAVVLKTTPKARHTEISLRAGQTVLTLNLPSAPTLSDGISAVLHLDGPALFFPGNTLEHHHHHH | soluble
14 | MSLYVVISPTGRTDGNIPARGYAGPSGRLDVIARAYNAILEPNATLAALLMGGPLPPRLLIAPLSCKDIVRSERSFMIEASRALRGRRSCFTVNDEGVEALASLLRRFKPRILLAEKGGDISSHWGEMCSSSPTFIAGSHLDPPHGLIKHLERSLGGFLRVSVGPLSLHTDHVFLLVSALRLPMHATSIEHH | not soluble
15 | AAAAAAMIVQRVVLNSRPGKNGNPVAENFRMEEVYLPDNINEGQVQVRTLYLSVDPYMRCRMNEDTGTDYITPWQLSQVVDGGGIGIIEESKHTNLTKGDFVTSFYWPWQTKVILDGNSLEKVDPQLVDGHLSYFLGAIGMPGLTSLIGIQEKGHITAGSNKTMVVSGAAGACGSVAGQIGHFLGCSRVVGICGTHEKCILLTSELGFDAAINYKKDNVAEQLRESCPAGVDVYFDNVGGNISDTVISQMNENSHIILCGQISQYNKDVPYPPPLSPAIEAIQKERNITRERFLVLNYKDKFEPGILQLSQWFKEGKLKIKETVINGLENMGAAFQSMMTGGNIGKQIVCISEEISL | soluble
16 | MSLSYLPLDEYQRKWIFTHQSMPVPEEDLAQIKPMSQARSAQFWKENISAQSPDMDRLSSQDWPMKESNWSETVDWMAAWESDEPNMPTEVETHIDWQDDVTVYFCYEKYNVIETKWSIFKKHWKNFLFYDDGPMLLGRRRAQALWFDSKGNVKLGERHEGHHHHHH | soluble
17 | MAGLGELERAVMDHLWSTSEPQTVRQVHEALAARRELAYTTVMTVLQRLAKKHLVIQQRDDRAHRYLPVHQREELVASLMVDALQQADKSGSRAAALVHFVGQVGADEADALREALAALEAKERSTGDNQSGTVRAG | not soluble
18 | MTNDNSGIWVLGYGSLIYKPPSHYTHRIPAIIHGFARRFWQSSTDHRGTPANPGRVATLIPYEDIIRQTAFLKNVNLYSESAPIQDPDDLVTIGVVYYIPPEHAQEVREYLNVREQNGYTLHEVEVHLETNREHEAELGEALEQLPRHNKSGKRVLLTSVYIGTIDNEAFVGPETVDETAKVIAVSHGPSGSNYEYLAKLEQALAQMPIMKERGRITDHYLTALLETVNKYR | soluble
